Reference: publication PMC6684798, “Structural basis for the target specificity of actin histidine methyltransferase SETD3” (Nature Communications, 2019)

Molecular target: T1, SETD3 N255A (Homo sapiens, UniProt Q86TU7, N256A)
T1 construct: GST (cleaved yes); made in house; host or cells: Escherichia coli BL21(DE3) CodonPlus
T1 sequence (Q86TU7 1-594 N256A): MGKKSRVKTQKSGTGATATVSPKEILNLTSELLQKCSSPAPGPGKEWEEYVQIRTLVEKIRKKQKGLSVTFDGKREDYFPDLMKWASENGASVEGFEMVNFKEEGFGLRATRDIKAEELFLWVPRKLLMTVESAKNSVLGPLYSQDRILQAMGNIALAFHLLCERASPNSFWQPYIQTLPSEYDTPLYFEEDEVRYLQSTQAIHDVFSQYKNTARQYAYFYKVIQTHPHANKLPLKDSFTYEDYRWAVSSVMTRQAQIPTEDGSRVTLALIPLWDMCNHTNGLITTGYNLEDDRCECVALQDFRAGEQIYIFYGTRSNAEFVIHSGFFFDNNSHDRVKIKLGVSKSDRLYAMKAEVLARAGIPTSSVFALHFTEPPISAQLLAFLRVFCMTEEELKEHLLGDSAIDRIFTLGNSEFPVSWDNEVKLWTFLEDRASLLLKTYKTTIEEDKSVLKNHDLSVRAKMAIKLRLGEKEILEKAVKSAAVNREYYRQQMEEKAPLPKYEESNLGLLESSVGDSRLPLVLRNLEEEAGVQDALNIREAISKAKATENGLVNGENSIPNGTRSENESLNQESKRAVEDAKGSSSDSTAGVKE
Assay: MALDI-TOF analysis of K73(66–88) methylation by N255A (Fig. 3d)
Format: biochemical
Conditions: pH 10.5, 37 °C, 3 μM N255A, 10 µM peptide, 40 µM SAM
Experimental: Fig. 3 Kinetics of SETD3 on H73 and K73 peptides. a Comparison of activities of three variants (WT, N255A, and N255V) on H73(66–80) peptide. The assays were performed at room temperature (~22 °C) and pH 8.0 using [WT] = 0.18 μM, [N255A] = 0.18 μM, and [N255V] = 0.72 μM. b Comparison of SETD3 WT activities on two K73 peptides (residues 66–80 and 66–88). The assays were performed at 37 °C and pH 10.5 using [WT] = 3 and 15 μM, respectively, for the long and short peptides. c Comparison of activities of three variants (N255A, N255V, and WT) on K73(66–88) peptide. The assays were performed at 37 °C and pH 10.5 using [N255A] = 90 nM, [N255V] = 0.72 μM and [WT] = 4 μM. Data represent the mean ± SD of N number of independent determinations (N = 3 for the WT and N = 2 for the mutants) performed in duplicate. Source data are provided as a Source Data file. d, e Mass spectrometry analysis of K73(66–88) methylation kinetic showing representative spectra at various time points for N255A variant (panel d) and SETD3 WT enzyme (panel e). The assays were performed at 37 °C and pH 10.5 using 3 μM for both N255A and WT. f In vitro methylation reactions with SETD3, indicated full-length actin proteins, and radiolabeled methyl donor (^3H-SAM). Right, Reactions were resolved by SDS–PAGE and activity was visualized by autoradiography. […] The first column head is 'SETD3', and the substrate peptide is printed only on the plot axis. / Panel b: the first column head is 'SETD3 (WT)', and the rows are K73 peptide substrates.
Recombinant human SETD3 (pXC2003) was expressed as a GST-fusion[22] in Escherichia coli BL21(DE3) CodonPlus^TM cells (Stratagene). […]
Actin K73 peptide (residues 66–88) was used as a substrate for SETD3 (Fig. 3d, e). […] We note that samples diluted into a 0.1% (v/v) TFA solution in water could not be detected by MALDI-TOF, thus the acetonitrile additive is necessary.

## K73(66–88): K73-containing actin H73K peptide, residues 66–88 (TLKYPIEKGIVTNWDDMEKIWHH; UniProt P60709 66-88, looked up, variant H73K)
10 min
  K73 methylation product: monomethyl lysine
30 min
  K73 methylation product: dimethyl
1 h
  K73 methylation product: complete conversion of unmodified substrate to trimethyl lysine
